Laboratory results published in US20240294570.

Legend:
[1] = system: T1, phosphopentapeptide 9, NBD-βA-llllpY
T1 sequence: LLLLY

[2] = system: T2, phosphopentapeptide 7, NBD-βA-LLpYLL
T2 sequence: XLLXLL

[3] = system: T3, L-phosphopentapeptide 5, NBD-βA-LLLLpY
T3 sequence: XLLLLX

[4] = system: T4, phosphopeptide 3, NBD-βA-LLLpY
T4 sequence: XLLLX

With “Alkaline phosphatase (Biomatik, Cat. No. A1130)” the “conversion ratio of 9 to 10 after 5 hours, 0.5 U/mL ALP” value [1] was “After 5 hours of incubation, the conversion ratio of 9 to 10 is 93.3%”, the “conversion ratio of 7 to 8 after 5 h, 0.5 U/mL ALP” value [2] was “After 5 h of incubation, the conversion ratio of 7 to 8 is 61.5%” and the “conversion of 5 to 6 after 1 hour, 0.1 U/mL ALP” value [3] was “After 1 hour of incubation, 32.7% of 5 turns into 6”. The “conversion of 5 to 6 after 2 hours, 0.1 U/mL ALP” value [3] was “After 2 hours of incubation of 5 with 0.1 U/mL of ALP, 49.6% of 5 becomes 6”, the “dephosphorylation ratio after 5 hours, 400 µM of 5, 0.5 U/mL ALP” value [3] was “After 5 hours of incubation, 400 µM of 5 results in a dephosphorylation ratio of 93.8%” and the “final dephosphorylation ratio, 5 (400 µM), 0.1 U/mL ALP” value [3] was “the final dephosphorylation ratio is 69.1%”. The “fraction of 5 hydrolyzed at 40 minutes, 0.1 U/mL ALP” value [3] was “At the time point 40 minutes, about 24% of 5 is hydrolyzed by ALP” and the “dephosphorylation catalyzed by ALP” value [4] was 3 is able to turn into 4 upon dephosphorylation catalyzed by ALP.
